Substitutions are numbered along the chain they refer to.

B1: BIIB-9-460 (antibody, V domains shown)
VH: QVQLVQSGAEVKKPGASVKVSCKASGYTFTSYYMHWVRQAPGQGLEWMGIINPSGGSTSYAQKFQGRVTMTRDTSTSTVYMELSSLRSEDTAVYYCARDISTDGESSLYYYMDVWGKGTTVTVSS
VL: EIVMTQSPATLSVSPGERATLSCRASQSVSSNLAWYQQKPGQAPRLLIYGASTRATGIPARFSGSGSGTEFTLTISSLQSEDFAVYYCQQHDNFPFTFGGGTKVEIK
B2: BIIB-9-1284 (antibody, V domains shown)
VH: QVQLVQSGAEVKKPGASVKVSCKASGYTFTSYYMVWVRQAPGQGLEWMGIINPSGGSTSYAQKFQGRVTMTRDTSTSTVYMELSSLRSEDTAVYYCARVPTYRYSYLAFDIWGQGTMVTVSS
VL: B1 VL with M4L, S30G, D92N, N93H, F94L, F96I
B3: BIIB-9-465 (antibody, V domains shown)
VH: QVQLVQSGAEVKKPGASVKVSCKASGYTFTSYYMVWVRQAPGQGLEWMGIINPSGGSTSYAQKFQGRVTMTRDTSTSTVYMELSSLRSEDTAVYYCARSPTDGYYFDLWGRGTLVTVSS
VL: DIQMTQSPSTLSASVGDRVTITCRASQSINSWLAWYQQKPGKAPKLLISDASSLESGVPSRFSGSGSGTEFTLTISSLQPDDFATYYCQQYEIFPFTFGGGTKVEIK
B4: BIIB-9-425 (antibody, V domains shown)
VH: QVQLVQSGAEVKKPGASVKVSCKASGYTFTSYYMHWVRQAPGQGLEWMGIINPSGGSTSYAQKFQGRVTMTRDTSTSTVYMELSSLRSEDTAVYYCAREPTWDVAYDYWGQGTLVTVS
VL: EIVLTQSPGTLSLSPGERATLSCRASQSVSSDYLAWYQQKPGQAPRLLIYGASSRATGIPDRFSGSGSGTDFTLTISRLEPEDFAVYYCQQYDSHPYTFGGGTKVEIK
B5: BIIB-9-587 (antibody, V domains shown)
VH: QVQLVQSGAEVKKPGASVKVSCKASGYTFTSYYMHWVRQAPGQGLEWMGIINPSGGSTSYAQKFQGRVTMTRDTSTSTVYMELSSLRSEDTAVYYCARGPPGYEYYMDVWGKGTTVTVSS
VL: DIQMTQSPSSVSASVGDRVTITCRASQGISSWLAWYQQKPGKAPKLLIYAASSLQSGVPSRFSGSGSGTDFTLTISSLQPEDFATYYCQQADSFPFTFGGGTKVEIK
B6: BIIB-9-1279 (antibody, V domains shown)
VH: QVQLVQSGAEVKKPGASVKVSCKASGYTFTSYYMHWVRQAPGQGLEWMGIINPSGGSTSYAQKFQGRVTMTRDTSTSTVYMELSSLRSEDTAVYYCARGPTDSSGYLDMDVWGKGTTVTVSS
VL: B5 VL with D92S, F96P
B7: BIIB-9-1272 (antibody, V domains shown)
VH: QVQLVQSGAEVKKPGASVKVSCKASGYTFTSYYMHWVRQAPGQGLEWMGIINPSGGSTSYAQKFQGRVTMTRDTSTSTVYMELSSLRSEDTAVYYCARDTGGYAFDIWGQGTLVTVSS
VL: B5 VL with D92S
B8: BIIB-9-590 (antibody, V domains shown)
VH: B5 VH with G99D, P100Q, P101E, G102W, Y103A, E104Y, Y106G, K112Q
VL: B1 VL with M4L, V13L, N32Y, G50D, T53N, E70D, Q79E, S80P, H91V, F96L
B9: BIIB-9-1274 (antibody, V domains shown)
VH: B7 VH
VL: B5 VL with D92N
B10: BIIB-9-1269 (antibody, V domains shown)
VH: B3 VH with V35H, S99D, P100R, T101G, D102Q, G103Y, Y105H
VL: B5 VL with T20A, D92S
B11: BIIB-9-415 (antibody, V domains shown)
VH: B5 VH with G99D, P100G, P101L, G102S, Y103S, E104G, M107W, V109N, K112Q, T115L
VL: B5 VL with S30D, A91G, S93A
B12: BIIB-9-1283 (antibody, V domains shown)
VH: B2 VH
VL: B5 VL with D92S, F96P
B13: BIIB-9-414 (antibody, V domains shown)
VH: QVQLVQSGAEVKKPGASVKVSCKASGYTFTSYYMHWVRQAPGQGLEWMGIINPSGGSTSYAQKFQGRVTMTRDTSTSTVYMELSSLRSEDTAVYYCARDPYSYGMYYFDYWGQGTLVTVSS
VL: B5 VL with A91G, S93V
B14: BIIB-9-585 (antibody, V domains shown)
VH: QLQLQESGPGLVKPSETLSLTCTVSGGSISSSDYYWGWIRQPPGKGLEWIGSIYYSGSTYYNPSLKSRVTISVDTSKNQFSLKLSSVTAADTAVYYCAREVGTYYYGLDFWFDPWGQGTLVTVSS
VL: B5 VL with D92N, F94Y, F96I
B15: BIIB-9-592 (antibody, V domains shown)
VH: QLQLQESGPGLVKPSETLSLTCTVSGGSISSNSYYWGWIRQPPGKGLEWIGSIYYSGSTYYNPSLKSRVTISVDTSKNQFSLKLSSVTAADTAVYYCARDSNYDSSGYALYYYGMDVWGQGTTVTVSS
VL: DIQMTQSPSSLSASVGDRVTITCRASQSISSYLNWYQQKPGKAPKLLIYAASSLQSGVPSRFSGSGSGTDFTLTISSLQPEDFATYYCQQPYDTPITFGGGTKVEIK
B16: BIIB-9-606 (antibody, V domains shown)
VH: B13 VH with D99T, P100K, Y101W, Y103S, G104S, M105P, Y107G, F108M, Y110V, L116T
VL: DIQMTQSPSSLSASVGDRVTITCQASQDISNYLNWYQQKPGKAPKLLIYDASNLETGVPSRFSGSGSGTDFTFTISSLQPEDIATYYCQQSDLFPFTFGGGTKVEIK
B17: BIIB-9-582 (antibody, V domains shown)
VH: QVQLVQSGAEVKKPGASVKVSCKASGYTFTSYYMVWVRQAPGQGLEWMGIINPSGGSTSYAQKFQGRVTMTRDTSTSTVYMELSSLRSEDTAVYYCARAPTYFYSYGMDVWGQGTTVTVSS
VL: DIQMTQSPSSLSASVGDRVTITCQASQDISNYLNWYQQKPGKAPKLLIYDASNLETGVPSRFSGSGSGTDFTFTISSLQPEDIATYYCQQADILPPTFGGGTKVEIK
B18: BIIB-9-629 (antibody, V domains shown)
VH: QVQLVQSGAEVKKPGASVKVSCKASGYTFTSYYMHWVRQAPGQGLEWMGVINPSGGSTSYAQKFQGRVTMTRDTSTSTVYMELSSLRSEDTAVYYCARDPSQDYATGTGWFDPWGQGTLVTVSS
VL: DIQLTQSPSSLSASVGDRVTITCQASQDISNYLNWYQQKPGKAPKLLIYDASNLETGVPSRFSGSGSGTDFTFTISSLQPEDIATYYCQQLDSLPPTFGGGTKVEIK
B19: BIIB-9-484 (antibody, V domains shown)
VH: EVQLVESGGGLVKPGGSLRLSCAASGFTFSSYSMNWVRQAPGKGLEWVSSISSSSSYIYYADSVKGRFTISRDNAKNSLYLQMNSLRAEDTAVYYCARDVGGYAGYYGMDVWGQGTTVTVSS
VL: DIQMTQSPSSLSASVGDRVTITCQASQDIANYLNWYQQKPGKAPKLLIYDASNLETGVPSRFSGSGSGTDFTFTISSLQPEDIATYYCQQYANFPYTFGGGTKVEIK
B20: BIIB-9-470 (antibody, V domains shown)
VH: EVQLVESGGGLVQPGGSLRLSCAASGFTFSSYWMSWVRQAPGKGLEWVANIKQDGSEKYYVDSVKGRFTISRDNAKNSLYLQMNSLRAEDTAVYYCARDAGIAWALDYWGQGTLVTVS
VL: DIQMTQSPSTLSASVGDRVTITCRASQSISSWLAWYQQKPGKAPKLLIYKASSLESGVPSRFSGSGSGTEFTLTISSLQPDDFATYYCQHPHSWTFGGGTKVEIK
B21: BIIB-9-885 (antibody, V domains shown)
VH: QVQLVQSGAEVKKPGASVKVSCKASGYTFTSYYMHWVRQAPGQGLEWMGIINPSGGSTSYAQKFQGRVTMTRDTSTSTVYMELSSLRSEDTAVYYCAREGPMLDYPTYSNWFDPWGQGTLVTVSS
VL: EIVLTQSPATLSLSPGERATLSCRASQSVSSYLAWYQQKPGQAPRLLIYDASKRATGIPARFSGSGSGTDFTLTISSLEPEDFAVYYCQQRVIWPPTFGGGTKVEIK
B22: BIIB-9-615 (antibody, V domains shown)
VH: QVQLVQSGAEVKKPGASVKVSCKASGYTFTSYYMHWVRQAPGQGLEWMGIINPSGGSTSYAQKFQGRVTMTRDTSTSTVYMELSSLRSEDTAVYYCARDSPSSSSYWSLDLWGRGTLVTVSS
VL: B21 VL with K53N, R91S, V92C, I93H, P96W
B23: BIIB-9-1270 (antibody, V domains shown)
VH: B7 VH
VL: B21 VL with K53N, R91S, V92A, I93D, W94F, P96F
B24: BIIB-9-433 (antibody, V domains shown)
VH: QLQLQESGPGLVKPSETLSLTCTVSGGSISSSRYYWGWIRQPPGKGLEWIGSIYYSGSTYYNPSLKSRVTISVDTSKNQFSLKLSSVTAADTAVYYCARDAGYSAELFDYWGQGTLVTVSS
VL: B21 VL with K53N, R91S, V92S, I93A, W94Y
B25: BIIB-9-480 (antibody, V domains shown)
VH: QVQLQESGPGLVKPSETLSLTCAVSGYSISSGYYWGWIRQPPGKGLEWIGSSYHSGSTYYNPSLKSRVTISVDTSKNQFSLKLSSVTAADTAVYYCARDQQDYGAFDIWGQGTMVTVSS
VL: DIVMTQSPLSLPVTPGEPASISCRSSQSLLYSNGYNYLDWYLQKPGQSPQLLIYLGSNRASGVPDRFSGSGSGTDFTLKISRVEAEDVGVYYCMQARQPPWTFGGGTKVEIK

The target of this experiment is free FIXa (activated Factor IX) (UniProt P00740 47-191; P00740 227-461). The experiment is described as follows: BLI. On the technique in general: In BLI a coated tip is dipped into the sample, and binding shifts an interference pattern.
The molecule B1 yielded a Kd of 20.1 nM. B2 had a Kd of 41.2 nM. B3: the Kd turned out to be 19.8 nM. Then B4, with 5.46 nM. Turning to B5, binding was put at a Kd of 11.8 nM.

The molecule B6 showed a Kd of 40.9 nM. Take B7: binding was put at a Kd of 45.6 nM. Consider B8, for which the Kd is 11.3 nM. Take B9: the affinity, expressed as Kd, was 28.4 nM. In turn, B10 displayed a Kd of 45.1 nM. B11: the Kd is 14.4 nM. As for B12, the affinity, expressed as Kd, was 37 nM.

The molecule B13 gave a Kd of 16.6 nM. Molecule B14 returned a Kd of 12.4 nM. For B15 the value was 21.7 nM.

In turn, B16 returned a Kd of 16 nM. The molecule B17 displayed a Kd of 14.2 nM.

B18: the affinity, expressed as Kd, was 25.6 nM. Then B19, with 37.7 nM; and B20, with 19.6 nM. In the case of B21, the affinity, expressed as Kd, was 0.804 nM. In turn, B22 had a Kd of 23.2 nM.

Regarding B23, the affinity, expressed as Kd, was 24.2 nM.

Molecule B24 had a Kd of 16.4 nM.

Molecule B25 registered a Kd of 7.51 nM.

As usually defined, the Kd is a measure of binding affinity in units of concentration.

For the origin of these results see patent publication US20230192896A1 (published 2023).
